US20210147547A1

Biological target: PD-L1 (UniProt Q9NZQ7)
Test: in vitro Biacore assay (SPR); format not stated

UniProt Q9NZQ7, sequence (Q9NZQ7 19-238 limits assumed): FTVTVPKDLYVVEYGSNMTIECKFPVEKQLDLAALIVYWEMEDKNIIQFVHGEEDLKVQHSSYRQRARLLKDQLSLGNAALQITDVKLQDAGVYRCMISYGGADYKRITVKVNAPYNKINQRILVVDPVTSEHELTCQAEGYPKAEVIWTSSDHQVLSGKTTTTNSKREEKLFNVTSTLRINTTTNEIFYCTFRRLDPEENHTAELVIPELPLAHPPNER

Kd: 0.14 nM
Substance: FAZ053 (antibody)
